# Values of other authors as cited in article PMC2892843.
# Molecular target: NgR1 (UniProt Q9BZR6)
# UniProt Q9BZR6, sequence (Q9BZR6 27-447): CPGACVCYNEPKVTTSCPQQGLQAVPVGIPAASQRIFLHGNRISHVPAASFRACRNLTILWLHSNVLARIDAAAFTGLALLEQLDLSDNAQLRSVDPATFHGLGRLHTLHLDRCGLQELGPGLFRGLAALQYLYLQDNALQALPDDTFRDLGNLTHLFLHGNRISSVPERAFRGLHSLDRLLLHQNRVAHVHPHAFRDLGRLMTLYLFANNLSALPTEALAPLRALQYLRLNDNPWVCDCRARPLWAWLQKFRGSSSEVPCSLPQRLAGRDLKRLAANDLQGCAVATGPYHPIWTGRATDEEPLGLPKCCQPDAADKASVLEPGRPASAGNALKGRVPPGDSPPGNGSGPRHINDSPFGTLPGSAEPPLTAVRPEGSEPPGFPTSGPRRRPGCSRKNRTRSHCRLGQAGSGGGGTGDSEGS
substance,measurement,value
MAG (from UniProt P20916),Kd,10 nM
